Columns and labels:
[1] = molecular target: T1, cell-surface CMVP495-503/HLA-A*02:01 complex (human cytomegalovirus (CMV); human); experiment: flow cytometry, MDA-MB-231 pulsed with 4 µM CMVP495-503 peptide, Alexa647 anti-mouse Fc
T1 construct: whole, on cells; also called CMV pp65 peptide complex

[2] = molecular target: T2, cell-surface HPVE11-19/HLA-A*02:01 complex (HPV16; human); experiment: flow cytometry, MDA-MB-231 pulsed with HPVE11-19 peptide, Alexa647 anti-mouse Fc
T2 construct: whole, on cells

[3] = molecular target: T1, cell-surface CMVP495-503/HLA-A*02:01 …; experiment: flow cytometry, 500 nM antibody on MDA-MB-231 cells pulsed with 50 µM peptide
[4] = molecular target: T1, cell-surface CMVP495-503/HLA-A*02:01 …; experiment: flow cytometry, cells pulsed with 50 µM CMVP495-503 peptide, Alexa647 anti-mouse Fc

B1: TCR-like antibody H9 #1 (IgG form, mouse IgG2a / mouse kappa) (antibody, V domains shown)
VH: EVQLVQSGAEVKKPGSSVKVSCKASGGTFSSYAISWVRQAPGQGLEWMGGIIPIFGTANYAQKFQGRVTITADESTSTAYMELSSLRSEDTAVYYCARGDLYYYDSSGYPLWYMDYWGQGTLVTVSS
VL: ETTLTQSPGTLSLSPGERATLSCRASQSVSSSYLAWYQQKPGQAPRLVIYGASSRATGIPDRFSGSGSGTDFTLTISRLEPEDFAVYYCQDYSTYPAFTFGQGTKLEIR
notes: also called #1 clone in IgG form
B1: binds [1]; no binding (tested: 50 nM) [2].

B2: TCR-like antibody H9 #1-30 (IgG form, mouse IgG2a / mouse kappa) (antibody, V domains shown)
VH: EVQLVQSGAEVKKPGSSVKVSCKASGGTFSSYAISWVRQAPGQGLEWMGSIIPIFGAAEYAQKFQGRVTITADESTSTAYMELSSLRSEDTAVYYCARGDLYYYDSSGYPLWYMDYWGQGTLVTVSS
VL: ETTLTQSPGTLSLSPGERATLSCRASQSVSSSYLAWYQQKPGQAPRLVIYGASSRPRGIPDRFSGSGSGTDFTLTISRLEPEDFAVYYCQDYSTYPAFTFGQGTKLEIR
B2: no binding (tested: 50 nM) [2].

B3: TCR-like antibody H9 (chimeric full-length IgG, mouse IgG2a / mouse kappa) (antibody, V domains shown)
VH: EVQLVQSGAEVKKPGSSVKVSCKASGGTFSSYAISWVRQAPGQGLEWMGGIIPIFGTANYAQKFQGRVTITADESTSTAYMELSSLRSEDTAVYYCARGDLYYYDSSGYPRYYFDYWGQGTLVTVSS
VL: ETTLTQSPGTLSLSPGERATLSCRASQSVSSSYLAWYQQKPGQAPRLVIYGASSRATGIPDRFSGSGSGTDFTLTISRLEPEDFAVYYCQHYSTSPGFTFGQGTKLEIR
notes: also called H9 clone; H9 antibody
B3: no binding (tested: 50 nM) [2]; binds [3].

B4: TCR-like antibody H9 #38 (IgG form, mouse IgG2a / mouse kappa) (antibody, V domains shown)
VH: EVQLVQSGAEVKKPGSSVKVSCKASGGTFSSYAISWVRQAPGQGLEWMGGIIPIFGTANYAQKFQGRVTITADESTSTAYMELSSLRSEDTAVYYCARGDLYYYDSSGYPWYYMDYWGQGTLVTVSS
VL: ETTLTQSPGTLSLSPGERATLSCRASQSVSSSYLAWYQQKPGQAPRLVIYGASSRATGIPDRFSGSGSGTDFTLTISRLEPEDFAVYYCQHSYAFPGFTFGQGTKLEIR
notes: also called #38 clone in IgG form
B4: binds [4].

B5: TCR-like antibody H9 #1-17 (IgG form, mouse IgG2a / mouse kappa) (antibody, V domains shown)
VH: EVQLVQSGAEVKKPGSSVKVSCKASGGTFSSYAISWVRQAPGQGLEWMGSIIPIFGVAEYAHKFQGRVTITADESTSTAYMELSSLRSEDTAVYYCARGDLYYYDSSGYPLWYMDYWGQGTLVTVSS
VL: ETTLTQSPGTLSLSPGERATLSCRASQSVSSSYLAWYQQKPGQAPRLVIYGASTRPTGIPDRFSGSGSGTDFTLTISRLEPEDFAVYYCQDYSTYPAFTFGQGTKLEIR
B5: binds [1]; no binding (tested: 50 nM) [2].

From patent US20230045418A1 (AJOU UNIVERSITY INDUSTRY ACADEMIC COOPERATION FOUNDATION, published 2023)
